# Data reported in PMC10816394, “Radiosynthesis and Bioevaluation of ^99mTc-Labeled Isocyanide Ubiquicidin 29-41 Derivatives as Potential Agents for Bacterial Infection Imaging” (International Journal of Molecular Sciences, 2024).
# No end group written: not given here.
# Key:
# S. aureus-infected mice = test system: S. aureus-infected mice; parameters: species or system female Kunming mice; settings: mouse, in vivo
# Description: Bacterial infection mouse models were constructed as follows: S. aureus (ATCC 25923) was cultured in a liquid medium at 37 °C for approximately 24 h, washed with PBS (pH 7.4) and diluted to obtain a suspension of 1 × 10^8 CFU/mL. […] The mice were sacrificed with isoflurane anesthesia at 120 min postinjection. […] To evaluate the metabolic properties of [^99mTc]Tc-CN5UBI 29-41, biodistribution studies were carried out in mice infected with S. aureus at 30, 120 and 240 min.
# [1] = type: physicochemical; settings: pH 7.4
# Description: The lipophilicities of the ^99mTc-labeled complexes were evaluated by the distribution coefficient. The method for determining the distribution coefficient was as follows: 0.1 mL of the radiolabeled complex (3.7 MBq) was mixed with 0.9 mL of phosphate buffer (0.025 mol/L, pH 7.4) and 1 mL of n-octanol in a 5 mL centrifuge tube. The mixture was shaken on a vortex mixer at room temperature for 3 min and centrifuged at 5000 r/min for 5 min. Aliquots of 0.1 mL of both n-octanol and PBS were collected, and the radioactivity was determined with a γ-counter. The distribution coefficient was calculated as follows: Log D = lg[(counts per minute in n-octanol/counts per minute in PBS)]. Each group of measurements was carried out five times in parallel. The final results are expressed as the log D ± SD.
Substance,Abscess/Blood ratio (S. aureus-infected mice),Abscess/Muscle ratio (target-to-nontarget ratio) (S. aureus-infected mice),"Log D ± SD, [^99mTc][Tc(Ⅰ)]^+ Core [1]","Log D ± SD, [^99mTc][Tc(Ⅴ)N]^2+ Core [1]"
"[^99mTc]Tc-CN6UBI 29-41: ^99mTc complex of ligand CN6UBI 29-41 with the [^99mTc]Tc(I)^+ core (TGRAKRRMQYNRR; also: CN6 chelator, position not given here, 99mTc(I) complex; UniProt P62861 103-115, looked up, fragment)",0.75 ± 0.10,3.48 ± 0.70,−2.62 ± 0.03,–
"[^99mTc]Tc-CN8UBI 29-41: ^99mTc complex of ligand CN8UBI 29-41 with the [^99mTc]Tc(I)^+ core (TGRAKRRMQYNRR; also: CN8 chelator, position not given here, 99mTc complex with [99mTc]Tc(I)+ core; UniProt P62861 103-115, looked up, fragment)",0.66 ± 0.16,2.64 ± 0.65,−2.54 ± 0.01,–
"[^99mTc]TcN-CN5UBI 29-41: ^99mTc complex of ligand CN5UBI 29-41 with the [^99mTc][Tc(V)N]^2+ core (TGRAKRRMQYNRR; also: CN5 chelator, position not given here, 99mTc complex with [99mTc][Tc(V)N]2+ core; UniProt P62861 103-115, looked up, fragment)",0.69 ± 0.22,2.10 ± 0.80,–,−2.71 ± 0.03
"[^99mTc]TcN-CN9UBI 29-41: ^99mTc complex of ligand CN9UBI 29-41 with the [^99mTc][Tc(V)N]^2+ core (TGRAKRRMQYNRR; also: CN9 chelator, position not given here, 99mTc complex with [99mTc][Tc(V)N]2+ core; UniProt P62861 103-115, looked up, fragment)",0.70 ± 0.29,2.79 ± 0.82,–,−2.41 ± 0.03
"[^99mTc]Tc(CO)3-CN7UBI 29-41: ^99mTc complex of ligand CN7UBI 29-41 with the [^99mTc][Tc(I)(CO)3(H2O)3]^+ core (TGRAKRRMQYNRR; also: CN7 chelator, position not given here, 99mTc(CO)3 complex; UniProt P62861 103-115, looked up, fragment)",0.69 ± 0.08,2.43 ± 0.49,–,–
"[^99mTc]TcN-CN8UBI 29-41: ^99mTc complex of ligand CN8UBI 29-41 with the [^99mTc][Tc(V)N]^2+ core (TGRAKRRMQYNRR; also: CN8 chelator, position not given here, 99mTc complex with [99mTc][Tc(V)N]2+ core; UniProt P62861 103-115, looked up, fragment)",0.72 ± 0.13,2.81 ± 0.55,–,−2.55 ± 0.03
"[^99mTc]TcN-CN6UBI 29-41: ^99mTc complex of ligand CN6UBI 29-41 with the [^99mTc][Tc(V)N]^2+ core (TGRAKRRMQYNRR; also: CN6 chelator, position not given here, 99mTc complex with [99mTc][Tc(V)N]2+ core; UniProt P62861 103-115, looked up, fragment)",0.70 ± 0.15,3.32 ± 0.99,–,−2.65 ± 0.03
"[^99mTc]Tc(CO)3-CN5UBI 29-41: ^99mTc complex of ligand CN5UBI 29-41 with the [^99mTc][Tc(I)(CO)3(H2O)3]^+ core (TGRAKRRMQYNRR; also: CN5 chelator, position not given here, 99mTc(CO)3 complex; UniProt P62861 103-115, looked up, fragment)",0.67 ± 0.15,2.49 ± 0.65,–,–
"[^99mTc]Tc(CO)3-CN9UBI 29-41: ^99mTc complex of ligand CN9UBI 29-41 with the [^99mTc][Tc(I)(CO)3(H2O)3]^+ core (TGRAKRRMQYNRR; also: CN9 chelator, position not given here, 99mTc(CO)3 complex; UniProt P62861 103-115, looked up, fragment)",0.75 ± 0.12,2.60 ± 0.68,–,–
"[^99mTc]Tc(CO)3-CN8UBI 29-41: ^99mTc complex of ligand CN8UBI 29-41 with the [^99mTc][Tc(I)(CO)3(H2O)3]^+ core (TGRAKRRMQYNRR; also: CN8 chelator, position not given here, 99mTc(CO)3 complex; UniProt P62861 103-115, looked up, fragment)",0.64 ± 0.11,2.42 ± 0.37,–,–
"[^99mTc]Tc-CN9UBI 29-41: ^99mTc complex of ligand CN9UBI 29-41 with the [^99mTc]Tc(I)^+ core (TGRAKRRMQYNRR; also: CN9 chelator, position not given here, 99mTc complex with [99mTc]Tc(I)+ core; UniProt P62861 103-115, looked up, fragment)",0.69 ± 0.04,2.62 ± 0.42,−2.52 ± 0.01,–
"[^99mTc]Tc-CN7UBI 29-41: ^99mTc complex of ligand CN7UBI 29-41 with the [^99mTc]Tc(I)^+ core (TGRAKRRMQYNRR; also: CN7 chelator, position not given here, 99mTc(I) complex; UniProt P62861 103-115, looked up, fragment)",0.56 ± 0.09,2.52 ± 0.56,−2.57 ± 0.03,–
"[^99mTc]Tc(CO)3-CN6UBI 29-41: ^99mTc complex of ligand CN6UBI 29-41 with the [^99mTc][Tc(I)(CO)3(H2O)3]^+ core (TGRAKRRMQYNRR; also: CN6 chelator, position not given here, 99mTc(CO)3 complex; UniProt P62861 103-115, looked up, fragment)",0.73 ± 0.19,2.48 ± 0.45,–,–
"[^99mTc]TcN-CN7UBI 29-41: ^99mTc complex of ligand CN7UBI 29-41 with the [^99mTc][Tc(V)N]^2+ core (TGRAKRRMQYNRR; also: CN7 chelator, position not given here, 99mTc complex with [99mTc][Tc(V)N]2+ core; UniProt P62861 103-115, looked up, fragment)",0.58 ± 0.12,2.47 ± 0.47,–,−2.58 ± 0.04
